These results are taken from patent US20200062856A1 (XDCEXPLORER SHANGHAI, published 2020).

The labels stand for the following.
T1: human TPBG-hFc protein (human, UniProt Q13641 32-355)
T1 construct: range 32-355; Expressed in HEK293 cells, purified on protein A; also called immunogen A; hFc tagged TPBG protein; not shown: human IgG Fc fragment of the pCpC vector
T1 sequence (looked up): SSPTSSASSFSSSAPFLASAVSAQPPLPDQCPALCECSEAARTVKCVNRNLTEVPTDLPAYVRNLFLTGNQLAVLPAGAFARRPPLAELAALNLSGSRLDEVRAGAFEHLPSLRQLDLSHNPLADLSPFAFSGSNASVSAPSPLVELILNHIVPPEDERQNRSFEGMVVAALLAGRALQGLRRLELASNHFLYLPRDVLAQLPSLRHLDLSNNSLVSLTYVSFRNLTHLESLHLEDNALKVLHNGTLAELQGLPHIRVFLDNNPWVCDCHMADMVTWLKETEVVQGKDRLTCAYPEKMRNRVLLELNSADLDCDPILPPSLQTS

B1: Humanized antibody 12B12-6 (antibody, V domains shown)
VH: EVQLVESGGGLVQPGGSLRLSCAASGFTFSNFGMHWVRQAPGKGLEWVAYISSGSTSFYYADTVKGRFTISRDNAKNSLYLQMNSLRDEDTAVYYCSRTNSLLRGFFDAWGQGTTVTVSS
VL: DIVLTQSPDSLAVSLGERATINCRASQSVSSSSYTYLHWYQQKPGQPPKLLIKSASNLESGVPDRFSGSGSGTDFTLTISSLQAEDVAVYYCQHSWEIPLTFGQGTKLEIK
notes: also called h12B12-6
B2: Humanized antibody 12B12-14 (antibody, V domains shown)
VH: EVQLVESGGGLVQPGGSLRLSCAASGFTFSNFGMHWVRQAPGKGLEWVAYISSGSTSFYYADTVKGRFTISRDNAKNSLYLQMNSLRDEDTAVYYCSRTNSLLRGFFDAWGQGTTVTVSS
VL: DIVLTQTPLSLSVTPGQPASISCRASQSVSSSSYTYLHWYLQKPGQPPQLLIKSASNLESGVPDRFSGSGSGTDFTLKISRVEAEDVGVYYCQHSWEIPLTFGQGTKLEIK
notes: also called h12B12-14
B3: Humanized antibody 12B12-9 (antibody, V domains shown)
VH: EVQLVESGGGLVQPGGSLRLSCAASGFTFSNFGMHWVRQAPGKGLEWVSYISSGSTSFYYADTVKGRFTISRDNAKNSLYLQMNSLRDEDTAVYYCSRTNSLLRGFFDAWGQGTTVTVSS
VL: DIVMTQTPLSLSVTPGQPASISCRASQSVSSSSYTYLHWYLQKPGQPPQLLIYSASNLESGVPDRFSGSGSGTDFTLKISRVEAEDVGVYYCQHSWEIPLTFGQGTKLEIK
notes: also called h12B12-9
B4: Humanized antibody 12B12-13 (antibody, V domains shown)
VH: EVQLVESGGGLVQPGGSLRLSCAASGFTFSNFGMHWVRQAPGKGLEWVSYISSGSTSFYYADTVKGRFTISRDNAKNSLYLQMNSLRDEDTAVYYCSRTNSLLRGFFDAWGQGTTVTVSS
VL: DIVLTQTPLSLSVTPGQPASISCRASQSVSSSSYTYLHWYLQKPGQPPQLLIKSASNLESGVPDRFSGSGSGTDFTLKISRVEAEDVGVYYCQHSWEIPLTFGQGTKLEIK
notes: also called h12B12-13
B5: Humanized antibody 12B12-1 (antibody, V domains shown)
VH: EVQLVESGGGLVQPGGSLRLSCAASGFTFSNFGMHWVRQAPGKGLEWVSYISSGSTSFYYADTVKGRFTISRDNAKNSLYLQMNSLRDEDTAVYYCSRTNSLLRGFFDAWGQGTTVTVSS
VL: DIVMTQSPDSLAVSLGERATINCRASQSVSSSSYTYLHWYQQKPGQPPKLLIYSASNLESGVPDRFSGSGSGTDFTLTISSLQAEDVAVYYCQHSWEIPLTFGQGTKLEIK
notes: also called h12B12-1
B6: Humanized antibody 12B12-7 (antibody, V domains shown)
VH: EVQLVESGGGVVQPGRSLRLSCAASGFTFSNFGMHWVRQAPGKGLEWVAYISSGSTSFYYADTVKGRFTISRDNSKNTLYLQMNSLRAEDTAVYYCARTNSLLRGFFDAWGQGTTVTVSS
VL: DIVLTQSPDSLAVSLGERATINCRASQSVSSSSYTYLHWYQQKPGQPPKLLIKSASNLESGVPDRFSGSGSGTDFTLTISSLQAEDVAVYYCQHSWEIPLTFGQGTKLEIK
notes: also called h12B12-7
B7: Humanized antibody 12B12-11 (antibody, V domains shown)
VH: EVQLVESGGGVVQPGRSLRLSCAASGFTFSNFGMHWVRQAPGKGLEWVAYISSGSTSFYYADTVKGRFTISRDNSKNTLYLQMNSLRAEDTAVYYCSRTNSLLRGFFDAWGQGTTVTVSS
VL: DIVMTQTPLSLSVTPGQPASISCRASQSVSSSSYTYLHWYLQKPGQPPQLLIYSASNLESGVPDRFSGSGSGTDFTLKISRVEAEDVGVYYCQHSWEIPLTFGQGTKLEIK
notes: also called h12B12-11
B8: Humanized antibody 12B12-2 (antibody, V domains shown)
VH: EVQLVESGGGLVQPGGSLRLSCAASGFTFSNFGMHWVRQAPGKGLEWVAYISSGSTSFYYADTVKGRFTISRDNAKNSLYLQMNSLRDEDTAVYYCSRTNSLLRGFFDAWGQGTTVTVSS
VL: DIVMTQSPDSLAVSLGERATINCRASQSVSSSSYTYLHWYQQKPGQPPKLLIYSASNLESGVPDRFSGSGSGTDFTLTISSLQAEDVAVYYCQHSWEIPLTFGQGTKLEIK
notes: also called h12B12-2
B9: Humanized antibody 12B12-3 (antibody, V domains shown)
VH: EVQLVESGGGVVQPGRSLRLSCAASGFTFSNFGMHWVRQAPGKGLEWVAYISSGSTSFYYADTVKGRFTISRDNSKNTLYLQMNSLRAEDTAVYYCSRTNSLLRGFFDAWGQGTTVTVSS
VL: DIVMTQSPDSLAVSLGERATINCRASQSVSSSSYTYLHWYQQKPGQPPKLLIYSASNLESGVPDRFSGSGSGTDFTLTISSLQAEDVAVYYCQHSWEIPLTFGQGTKLEIK
notes: also called h12B12-3
B10: Humanized antibody 12B12-10 (antibody, V domains shown)
VH: EVQLVESGGGLVQPGGSLRLSCAASGFTFSNFGMHWVRQAPGKGLEWVAYISSGSTSFYYADTVKGRFTISRDNAKNSLYLQMNSLRDEDTAVYYCSRTNSLLRGFFDAWGQGTTVTVSS
VL: DIVMTQTPLSLSVTPGQPASISCRASQSVSSSSYTYLHWYLQKPGQPPQLLIYSASNLESGVPDRFSGSGSGTDFTLKISRVEAEDVGVYYCQHSWEIPLTFGQGTKLEIK
notes: also called h12B12-10
B11: Humanized antibody 12B12-8 (antibody, V domains shown)
VH: EVQLVESGGGVVQPGRSLRLSCAASGFTFSNFGMHWVRQAPGKGLEWVAYISSGSTSFYYADTVKGRFTISRDNSKNTLYLQMNSLRAEDTAVYYCSRTNSLLRGFFDAWGQGTTVTVSS
VL: DIVLTQSPDSLAVSLGERATINCRASQSVSSSSYTYLHWYQQKPGQPPKLLIKSASNLESGVPDRFSGSGSGTDFTLTISSLQAEDVAVYYCQHSWEIPLTFGQGTKLEIK
notes: also called h12B12-8
B12: Humanized antibody 28D4-6 (antibody, V domains shown)
VH: EVQLVESGGGLVKPGGSLRLSCAASGFTFSNYVMSWIRQAPGKGLEWVSEISTGGSHTYYSDTVTGRFTISRDNAKNSLYLQMNSLRAEDTAVYYCIMFYYGSSYSMDYWGQGTTVTVSS
VL: DIQMTQSPSSLSASVGDRVTITCRASQDIRNYLNWYQQKPGKAPKLLIYHTSRLHSGVPSRFSGSGSGTDYTFTISSLQPEDIATYYCQQGDTLPLTFGQGTRLEIK
notes: also called h28D4-6
B13: Humanized antibody 28D4-2 (antibody, V domains shown)
VH: EVQLVESGGGLVKPGGSLRLSCAASGFTFSNYVMSWIRQAPGKGLEWVSEISTGGSHTYYSDTVTGRFTISRDNAKNSLYLQMNSLRAEDTAVYYCIMFYYGSSYSMDYWGQGTTVTVSS
VL: DIQMTQSPSSLSASVGDRVTITCRASQDIRNYLNWYQQKPGKAPKLLIYHTSRLHSGVPSRFSGSGSGTDFTFTISSLQPEDIATYYCQQGDTLPLTFGQGTRLEIK
notes: also called h28D4-2
B14: Humanized antibody 28D4-1 (antibody, V domains shown)
VH: EVQLVESGGGLVKPGGSLRLSCAASGFTFSNYVMSWIRQAPGKGLEWVSEISTGGSHTYYSDTVTGRFTISRDNAKNSLYLQMNSLRAEDTAVYYCARFYYGSSYSMDYWGQGTTVTVSS
VL: DIQMTQSPSSLSASVGDRVTITCRASQDIRNYLNWYQQKPGKAPKLLIYHTSRLHSGVPSRFSGSGSGTDFTFTISSLQPEDIATYYCQQGDTLPLTFGQGTRLEIK
notes: also called h28D4-1
B15: Humanized antibody 28D4-5 (antibody, V domains shown)
VH: EVQLVESGGGLVKPGGSLRLSCAASGFTFSNYVMSWIRQAPGKGLEWVSEISTGGSHTYYSDTVTGRFTISRDNAKNSLYLQMNSLRAEDTAVYYCARFYYGSSYSMDYWGQGTTVTVSS
VL: DIQMTQSPSSLSASVGDRVTITCRASQDIRNYLNWYQQKPGKAPKLLIYHTSRLHSGVPSRFSGSGSGTDYTFTISSLQPEDIATYYCQQGDTLPLTFGQGTRLEIK
notes: also called h28D4-5

The target in the assay is T1, human TPBG-hFc protein. Kind of assay: ELISA, coated human TPBG-hFc. As for the experimental part:
The purified human TPBG-hFc obtained from step (1) diluting with PBS to a final concentration of 1.0 μg/mL was aliquoted into a 96-well ELISA plate at 100 μL per well, and sealed with a parafilm and incubated at 4° C. overnight. The plate was washed twice with plate washing buffer (PBS containing 0.01% (v/v) Tween 20), and blocked with blocking buffer (PBS containing 0.01% (v/v) Tween 20 and 1% (w/w) BSA) at room temperature for 2 h. The blocking buffer was discarded, and […] per well of the purified antibody TPBG was added. After incubating at 37° C. for 2 h, the plate was washed for three times with plate washing buffer (PBS containing 0.01% (v/v) Tween 20). HRP (horseradish peroxidase)-labeled secondary antibody (purchased from Sigma) was added and incubated at 37° C. for 2 h, and the plate was washed for three times using plate washing buffer (PBS containing 0.01% (v/v) Tween 20). 100 μL of TMB substrate was aliquoted into each well, incubated at room temperature for 30 min, and 100 μL of stop buffer (1.0 N HCl) per well was subsequently added. A_{450 nm} values were read using the ELISA plate reader (SpectraMax 384plus purchased from Molecular Device), and the results were shown in Table 5. […] In Table 5 the IgG control herein is a mice IgG control, the data in the Table are OD_{450 nm} values, and Blank represents the OD_{450 nm} value of PBS buffer in the plate.
The purified humanized TPBG antibody obtained from Embodiment 1 was reacted with human TPBG-hFc, for the method, see (5) Identification of lead antibody in Embodiment 1. The EC50 in Table 11 and Table 12 are calculated according to the OD450 nm value of the h12B12 variants and the h28D4 variants, respectively. […] FIGS. 7A and 7B are the binding reactions of purified humanized h12B12 variants to human TBPG-hFc protein, and FIGS. 8A and 8B are the binding reactions of the purified humanized h28D4 variants to human TBPG-hFc protein.
Broadly, the EC50 is the midpoint of the concentration-response curve. Regarding B1, it took 362 pM to reach a half-maximal effect (EC50).
For B2 the value was 257 pM.
To B3 belongs 223 pM; to B4, 289 pM.
To B5 belongs 248 pM.
Regarding B6, the EC50 was 367 pM. This EC50 and that of the molecule before are within 1.5-fold of each other.
For B7 the value was 239 pM; for B8, 274 pM.
For B9 the value was 333 pM; for B10, 250 pM.
For B11, a half-maximal effect (EC50) was put at 287 pM.
For B12 the value was 205 pM.
To B13 belongs 181 pM.
For B14 the value was 364 pM.
For B15, the EC50 was found to be 782 pM.
